B1: CE115HA000 W33F (antibody, human IgG1, kappa, L234A L235A, N297A, name in Kabat numbering)
heavy: QVQLVESGGGVVQPGRSLRLSCAASGFTFSNAFMHWVRQAPGKGLEWVAQIKAKSNNYATYYAESVKGRFTISRDDSKNSLYLQMNSLKTEDTAVYYCRYVHYGAYYGVDAWGQGTTVTVSSASTKGPSVFPLAPSSKSTSGGTAALGCLVKDYFPEPVTVSWNSGALTSGVHTFPAVLQSSGLYSLSSVVTVPSSSLGTQTYICNVNHKPSNTKVDKKVEPKSCDKTHTCPPCPAPEAAGGPSVFLFPPKPKDTLMISRTPEVTCVVVDVSHEDPEVKFNWYVDGVEVHNAKTKPREEQYASTYRVVSVLTVLHQDWLNGKEYKCKVSNKALPAPIEKTISKAKGQPREPQVYTLPPSRCELTKNQVSLSCAVKGFYPSDIAVEWESNGQPENNYKTTPPVLDSDGSFFLVSKLTVDKSRWQQGNVFSCSVMHEALHNHYTQKSLSLSPDYKDDDDK
chain: EPKSSDKTHTCPPCPAPELLGGPSVFLFPPKPKDTLMISRTPEVTCVVVDVSHEDPEVKFNWYVDGVEVHNAKTKPREEQYNSTYRVVSVLTVLHQDWLNGKEYKCKVSNKALPAPIEKTISKAKGQPREPQVCTLPPSRDELTKNQVSLWCLVKGFYPSDIAVEWESNGQPENNYKTTPPVLDSDGSFFLYSKLTVDKSRWQQGNVFSCSVMHEALHNRYTQKSLSLSP
light: DIVMTQSPLSLPVTPGEPASISCRSSQSLVHSNRNTYLHWYQQKPGQAPRLLIYKVSNRFSGVPDRFSGSGSGTDFTLKISRVEAEDVGVYYCGQGTQVPYTFGQGTKLEIKRTVAAPSVFIFPPSDEQLKSGTASVVCLLNNFYPREAKVQWKVDNALQSGNSQESVTEQDSKDSTYSLSSTLTLSKADYEKHKVYACEVTHQGLSSPVTKSFNRGEC
notes: one-arm antibody
B2: CE115HA000 W33H (antibody, human IgG1, kappa, L234A L235A, N297A, name in Kabat numbering)
heavy: QVQLVESGGGVVQPGRSLRLSCAASGFTFSNAHMHWVRQAPGKGLEWVAQIKAKSNNYATYYAESVKGRFTISRDDSKNSLYLQMNSLKTEDTAVYYCRYVHYGAYYGVDAWGQGTTVTVSSASTKGPSVFPLAPSSKSTSGGTAALGCLVKDYFPEPVTVSWNSGALTSGVHTFPAVLQSSGLYSLSSVVTVPSSSLGTQTYICNVNHKPSNTKVDKKVEPKSCDKTHTCPPCPAPEAAGGPSVFLFPPKPKDTLMISRTPEVTCVVVDVSHEDPEVKFNWYVDGVEVHNAKTKPREEQYASTYRVVSVLTVLHQDWLNGKEYKCKVSNKALPAPIEKTISKAKGQPREPQVYTLPPSRCELTKNQVSLSCAVKGFYPSDIAVEWESNGQPENNYKTTPPVLDSDGSFFLVSKLTVDKSRWQQGNVFSCSVMHEALHNHYTQKSLSLSPDYKDDDDK
chain: EPKSSDKTHTCPPCPAPELLGGPSVFLFPPKPKDTLMISRTPEVTCVVVDVSHEDPEVKFNWYVDGVEVHNAKTKPREEQYNSTYRVVSVLTVLHQDWLNGKEYKCKVSNKALPAPIEKTISKAKGQPREPQVCTLPPSRDELTKNQVSLWCLVKGFYPSDIAVEWESNGQPENNYKTTPPVLDSDGSFFLYSKLTVDKSRWQQGNVFSCSVMHEALHNRYTQKSLSLSP
light: DIVMTQSPLSLPVTPGEPASISCRSSQSLVHSNRNTYLHWYQQKPGQAPRLLIYKVSNRFSGVPDRFSGSGSGTDFTLKISRVEAEDVGVYYCGQGTQVPYTFGQGTKLEIKRTVAAPSVFIFPPSDEQLKSGTASVVCLLNNFYPREAKVQWKVDNALQSGNSQESVTEQDSKDSTYSLSSTLTLSKADYEKHKVYACEVTHQGLSSPVTKSFNRGEC
notes: one-arm antibody
B3: CE115HA000 W33Y (antibody, human IgG1, kappa, L234A L235A, N297A, name in Kabat numbering)
heavy: QVQLVESGGGVVQPGRSLRLSCAASGFTFSNAYMHWVRQAPGKGLEWVAQIKAKSNNYATYYAESVKGRFTISRDDSKNSLYLQMNSLKTEDTAVYYCRYVHYGAYYGVDAWGQGTTVTVSSASTKGPSVFPLAPSSKSTSGGTAALGCLVKDYFPEPVTVSWNSGALTSGVHTFPAVLQSSGLYSLSSVVTVPSSSLGTQTYICNVNHKPSNTKVDKKVEPKSCDKTHTCPPCPAPEAAGGPSVFLFPPKPKDTLMISRTPEVTCVVVDVSHEDPEVKFNWYVDGVEVHNAKTKPREEQYASTYRVVSVLTVLHQDWLNGKEYKCKVSNKALPAPIEKTISKAKGQPREPQVYTLPPSRCELTKNQVSLSCAVKGFYPSDIAVEWESNGQPENNYKTTPPVLDSDGSFFLVSKLTVDKSRWQQGNVFSCSVMHEALHNHYTQKSLSLSPDYKDDDDK
chain: EPKSSDKTHTCPPCPAPELLGGPSVFLFPPKPKDTLMISRTPEVTCVVVDVSHEDPEVKFNWYVDGVEVHNAKTKPREEQYNSTYRVVSVLTVLHQDWLNGKEYKCKVSNKALPAPIEKTISKAKGQPREPQVCTLPPSRDELTKNQVSLWCLVKGFYPSDIAVEWESNGQPENNYKTTPPVLDSDGSFFLYSKLTVDKSRWQQGNVFSCSVMHEALHNRYTQKSLSLSP
light: DIVMTQSPLSLPVTPGEPASISCRSSQSLVHSNRNTYLHWYQQKPGQAPRLLIYKVSNRFSGVPDRFSGSGSGTDFTLKISRVEAEDVGVYYCGQGTQVPYTFGQGTKLEIKRTVAAPSVFIFPPSDEQLKSGTASVVCLLNNFYPREAKVQWKVDNALQSGNSQESVTEQDSKDSTYSLSSTLTLSKADYEKHKVYACEVTHQGLSSPVTKSFNRGEC
notes: one-arm antibody
B4: CE115HA000 Y55D (antibody, human IgG1, kappa, L234A L235A, N297A, name in Kabat numbering)
heavy: QVQLVESGGGVVQPGRSLRLSCAASGFTFSNAWMHWVRQAPGKGLEWVAQIKAKSNNDATYYAESVKGRFTISRDDSKNSLYLQMNSLKTEDTAVYYCRYVHYGAYYGVDAWGQGTTVTVSSASTKGPSVFPLAPSSKSTSGGTAALGCLVKDYFPEPVTVSWNSGALTSGVHTFPAVLQSSGLYSLSSVVTVPSSSLGTQTYICNVNHKPSNTKVDKKVEPKSCDKTHTCPPCPAPEAAGGPSVFLFPPKPKDTLMISRTPEVTCVVVDVSHEDPEVKFNWYVDGVEVHNAKTKPREEQYASTYRVVSVLTVLHQDWLNGKEYKCKVSNKALPAPIEKTISKAKGQPREPQVYTLPPSRCELTKNQVSLSCAVKGFYPSDIAVEWESNGQPENNYKTTPPVLDSDGSFFLVSKLTVDKSRWQQGNVFSCSVMHEALHNHYTQKSLSLSPDYKDDDDK
chain: EPKSSDKTHTCPPCPAPELLGGPSVFLFPPKPKDTLMISRTPEVTCVVVDVSHEDPEVKFNWYVDGVEVHNAKTKPREEQYNSTYRVVSVLTVLHQDWLNGKEYKCKVSNKALPAPIEKTISKAKGQPREPQVCTLPPSRDELTKNQVSLWCLVKGFYPSDIAVEWESNGQPENNYKTTPPVLDSDGSFFLYSKLTVDKSRWQQGNVFSCSVMHEALHNRYTQKSLSLSP
light: DIVMTQSPLSLPVTPGEPASISCRSSQSLVHSNRNTYLHWYQQKPGQAPRLLIYKVSNRFSGVPDRFSGSGSGTDFTLKISRVEAEDVGVYYCGQGTQVPYTFGQGTKLEIKRTVAAPSVFIFPPSDEQLKSGTASVVCLLNNFYPREAKVQWKVDNALQSGNSQESVTEQDSKDSTYSLSSTLTLSKADYEKHKVYACEVTHQGLSSPVTKSFNRGEC
notes: one-arm antibody
B5: CE115HA000 Y55G (antibody, human IgG1, kappa, L234A L235A, N297A, name in Kabat numbering)
heavy: QVQLVESGGGVVQPGRSLRLSCAASGFTFSNAWMHWVRQAPGKGLEWVAQIKAKSNNGATYYAESVKGRFTISRDDSKNSLYLQMNSLKTEDTAVYYCRYVHYGAYYGVDAWGQGTTVTVSSASTKGPSVFPLAPSSKSTSGGTAALGCLVKDYFPEPVTVSWNSGALTSGVHTFPAVLQSSGLYSLSSVVTVPSSSLGTQTYICNVNHKPSNTKVDKKVEPKSCDKTHTCPPCPAPEAAGGPSVFLFPPKPKDTLMISRTPEVTCVVVDVSHEDPEVKFNWYVDGVEVHNAKTKPREEQYASTYRVVSVLTVLHQDWLNGKEYKCKVSNKALPAPIEKTISKAKGQPREPQVYTLPPSRCELTKNQVSLSCAVKGFYPSDIAVEWESNGQPENNYKTTPPVLDSDGSFFLVSKLTVDKSRWQQGNVFSCSVMHEALHNHYTQKSLSLSPDYKDDDDK
chain: EPKSSDKTHTCPPCPAPELLGGPSVFLFPPKPKDTLMISRTPEVTCVVVDVSHEDPEVKFNWYVDGVEVHNAKTKPREEQYNSTYRVVSVLTVLHQDWLNGKEYKCKVSNKALPAPIEKTISKAKGQPREPQVCTLPPSRDELTKNQVSLWCLVKGFYPSDIAVEWESNGQPENNYKTTPPVLDSDGSFFLYSKLTVDKSRWQQGNVFSCSVMHEALHNRYTQKSLSLSP
light: DIVMTQSPLSLPVTPGEPASISCRSSQSLVHSNRNTYLHWYQQKPGQAPRLLIYKVSNRFSGVPDRFSGSGSGTDFTLKISRVEAEDVGVYYCGQGTQVPYTFGQGTKLEIKRTVAAPSVFIFPPSDEQLKSGTASVVCLLNNFYPREAKVQWKVDNALQSGNSQESVTEQDSKDSTYSLSSTLTLSKADYEKHKVYACEVTHQGLSSPVTKSFNRGEC
notes: one-arm antibody
B6: CE115HA000 Y55S (antibody, human IgG1, kappa, L234A L235A, N297A, name in Kabat numbering)
heavy: QVQLVESGGGVVQPGRSLRLSCAASGFTFSNAWMHWVRQAPGKGLEWVAQIKAKSNNSATYYAESVKGRFTISRDDSKNSLYLQMNSLKTEDTAVYYCRYVHYGAYYGVDAWGQGTTVTVSSASTKGPSVFPLAPSSKSTSGGTAALGCLVKDYFPEPVTVSWNSGALTSGVHTFPAVLQSSGLYSLSSVVTVPSSSLGTQTYICNVNHKPSNTKVDKKVEPKSCDKTHTCPPCPAPEAAGGPSVFLFPPKPKDTLMISRTPEVTCVVVDVSHEDPEVKFNWYVDGVEVHNAKTKPREEQYASTYRVVSVLTVLHQDWLNGKEYKCKVSNKALPAPIEKTISKAKGQPREPQVYTLPPSRCELTKNQVSLSCAVKGFYPSDIAVEWESNGQPENNYKTTPPVLDSDGSFFLVSKLTVDKSRWQQGNVFSCSVMHEALHNHYTQKSLSLSPDYKDDDDK
chain: EPKSSDKTHTCPPCPAPELLGGPSVFLFPPKPKDTLMISRTPEVTCVVVDVSHEDPEVKFNWYVDGVEVHNAKTKPREEQYNSTYRVVSVLTVLHQDWLNGKEYKCKVSNKALPAPIEKTISKAKGQPREPQVCTLPPSRDELTKNQVSLWCLVKGFYPSDIAVEWESNGQPENNYKTTPPVLDSDGSFFLYSKLTVDKSRWQQGNVFSCSVMHEALHNRYTQKSLSLSP
light: DIVMTQSPLSLPVTPGEPASISCRSSQSLVHSNRNTYLHWYQQKPGQAPRLLIYKVSNRFSGVPDRFSGSGSGTDFTLKISRVEAEDVGVYYCGQGTQVPYTFGQGTKLEIKRTVAAPSVFIFPPSDEQLKSGTASVVCLLNNFYPREAKVQWKVDNALQSGNSQESVTEQDSKDSTYSLSSTLTLSKADYEKHKVYACEVTHQGLSSPVTKSFNRGEC
notes: one-arm antibody

Molecular target: T1, CD3 epsilon homodimer protein (UniProt P07766 23-126)
T1 construct: also called CD3 (CD3 epsilon)
T1 sequence (P07766 23-126): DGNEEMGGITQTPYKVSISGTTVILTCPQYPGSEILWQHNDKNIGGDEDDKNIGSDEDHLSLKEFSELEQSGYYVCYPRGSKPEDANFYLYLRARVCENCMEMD
Test: SPR, CD3 epsilon homodimer on chip, one-arm antibody as analyte;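 note: surface plasmon resonance at 25 °C with CD3 epsilon homodimer amine-coupled to a CM4 sensor chip, antibody injected as analyte, HBS-EP+ as running buffer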
Procedure: An appropriate amount of CD3 epsilon homodimer protein was immobilized onto Sensor chip CM4 (GE Healthcare Japan Corp.) by the amine coupling method. Then, the antibody having an appropriate concentration was injected thereto as an analyte and allowed to interact with the CD3 epsilon homodimer protein on the sensor chip. Then, the sensor chip was regenerated by the injection of 10 mmol/L glycine-HCl (pH 1.5). The assay was conducted at 25 degrees C., and HBS-EP+(GE Healthcare Japan Corp.) was used as a running buffer. […] Each parameter was calculated using Biacore T200 Evaluation Software (GE Healthcare Japan Corp.).

Q: How did the “KD ratio (KD of CE115HA000/KD of altered form)” value (“KD ratio” below) turn out when B1 was run?
A: 0.66

Q: Which “KD ratio” value does the source give for B2 here?
A: 4.96

Q: For B3, which “KD ratio” value is on record?
A: 0.69

Q: For B4, which “KD ratio” value is on record?
A: 0.89

Q: With B5 as the binder, how does the “KD ratio” value read?
A: 0.99

Q: How did the “KD ratio” value turn out when B6 was run?
A: 5.65

— patent US20210388087A1 (Chugai, published 2021)
